Test results as given in the supplement of paper PMC12855868.

B1: library; numbered along this chain (parent)
chain: MAAAGGARLLRAASAVLGGPAGRWLHHAGSRAGSSGLLRNRGPGGSAEASRSLSVSARARSSSEDKITVHFINRDGETLTTKGKVGDSLLDVVVENNLDIDGFGACEGTLACSTCHLIFEDHIYEKLDAITDEENDMLDLAYGLTDRSRLGCQICLTKSMDNMTVRVPETVADARQSIDVGKTS

Variants of: B1
Assay: scaled log2 fold change in cell abundance, elesclomol vs control (0 = silent mean, 1 = nonsense mean) (scaled log2 ratio); higher = higher viability under elesclomol (loss of FDX1 cuproptosis function)
Conditions: glucose 10 mM
[1] = with ABC1 FDX1 KO, elesclomol 5 nM, 14 days
[2] = with HEK293T FDX1 KO, elesclomol 40 nM, 11 days
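Also: variant abundance is its share of total variant reads in each endpoint sample, from next-generation sequencing of the integrated ORF PCR-amplified out of genomic DNA.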

| Variant | scaled log2 fold change [1] | scaled log2 fold change [2] |
| --- | --- | --- |
| Y124W | -0.403 | -0.22 |
| Y124L | 0.252 | 0.75 |
| Y124G | -0.0904 | 0.69 |
| Y124A | -0.0589 |  |
| Y124K | 0.0432 | -0.66 |
| Y124R | 0.234 | -0.258 |
| Y124C | 0.198 | -0.0461 |
| Y124P | 0.511 | 0.253 |
| Y124M | -0.133 | -0.153 |
| Y124E | 0.16 | 0.747 |
| Y124F | -0.497 | -0.225 |
| Y124S | 0.413 | 0.62 |
| Y124T | 0.399 | -0.214 |
| Y124H | 0.148 | 1.04 |
| Y124D | 0.088 | 0.872 |
| Y124V | -0.329 | -0.724 |
| Y124I | 0.367 | 0.0274 |
| Y124N | 0.36 | 1.01 |
| Y124Q | 0.286 | -0.703 |
| E120S | 0.0771 | -1.62 |
| E120K | 0.0347 | 0.542 |
| E120N | 0.109 | 0.835 |
| E120D | 0.203 | 0.978 |
| E120Q | -0.192 | 0.816 |

| Variant | scaled log2 fold change [1] | scaled log2 fold change [2] |
| --- | --- | --- |
| E120T | 0.0538 | -0.0827 |
| E120W | 0.298 | -0.149 |
| E120G | 0.367 | -0.0815 |
| E120L | 0.202 | 0.102 |
| E120M | -0.223 | 0.0763 |
| E120F | 0.141 | -0.0751 |
| E120V | 0.256 | -0.849 |
| E120I | -0.276 | 0.524 |
| E120H | -0.0176 | -0.794 |
| E120R | 0.278 | -0.473 |
| E120P | 0.108 | 0.193 |
| E120Y | 0.267 | -0.449 |
| E120A | 0.194 | -0.0676 |
| E120C | 0.227 | -0.059 |
| I118A | 0.0431 | -0.147 |
| I118N | 0.286 | -0.696 |
| I118W | 0.135 | 0.474 |
| I118K | 0.00843 | 0.202 |
| I118S | 0.159 | -0.594 |
| I118Y | 0.0377 | -0.427 |
| I118R | -0.527 | -0.461 |
| I118V | -0.103 | -0.548 |
| I118C | -0.313 | -0.183 |
| I118M | 0.0783 | 0.694 |

| Variant | scaled log2 fold change [1] | scaled log2 fold change [2] |
| --- | --- | --- |
| I118T | -0.289 | 0.934 |
| I118G | 0.403 | -0.108 |
| I118Q | 0.0897 | 0.252 |
| I118H | 0.249 | 0.918 |
| I118F | -0.0055 | -0.412 |
| I118L | 0.0425 | 0.108 |
| I118P | 1.16 | 0.991 |
| I118E | -0.0205 | -0.0505 |
| I118D | 0.0488 | 0.0453 |
| D128A | -0.474 | -0.104 |
| D128S | -0.519 | 1.1 |
| D128F | -0.376 | 0.338 |
| D128N | -0.106 | -0.13 |
| D128G | 0.0426 |  |
| D128R | -1.26 | -0.293 |
| D128Q | -0.253 |  |
| D128P | 0.196 |  |
| D128C | 0.113 | 0.174 |
| D128I | -0.0983 | -0.34 |
| D128L | 0.397 | -0.761 |
| D128M | -0.149 | -0.00382 |
| D128H | 0.277 |  |
| D128K | -0.0506 | -0.0961 |
| D128E | 0.267 | 0.301 |

| Variant | scaled log2 fold change [1] | scaled log2 fold change [2] |
| --- | --- | --- |
| H122D | -0.343 |  |
| H122I | 0.215 | 1.13 |
| H122Q | -0.0669 | 0.352 |
| H122R | -0.313 | 0.00681 |
| H122K | -0.152 | -0.221 |
| H122E | 0.137 |  |
| H122G | -1.06 |  |
| H122Y | -0.259 |  |
| H122S | -0.554 |  |
| H122F | -0.949 |  |
| H122C | -0.812 |  |
| H122M | 0.0412 | 0.368 |
| H122W | 0.634 | -0.608 |
| H122T | 0.191 | 0.139 |
| H122N | 0.564 | 0.129 |
| H122L | -0.634 |  |
| H122V | 0.297 | -0.437 |
| H122P | -0.0781 | -0.564 |
| L117H | 1.03 | 1.35 |
| L117T | 0.178 | 0.185 |
| L117D | 1.19 | 0.855 |
| L117V | 0.152 | 0.867 |
| L117M | 0.167 | -0.247 |
| L117A | 0.00712 | 0.115 |

| Variant | scaled log2 fold change [1] | scaled log2 fold change [2] |
| --- | --- | --- |
| L117F | 0.176 | 0.206 |
| L117I | -0.11 | -0.196 |
| L117K | 1.07 | 1.03 |
| L117Q | 1.05 | 0.896 |
| L117G | 0.483 | 0.224 |
| L117S | 0.36 | -1.36 |
| L117P | 1.02 | 1.03 |
| L117E | 1.05 | 0.745 |
| L117W | 1.03 | 0.891 |
| L117R | 1.14 | 0.855 |
| L117C | 0.0758 | 0.451 |
| L117N | 1.04 | 0.559 |
| L117Y | 1 | 1.02 |
| K126I | -0.0257 | -0.476 |
| K126V | 0.162 | 0.807 |
| K126W | 0.411 | 0.186 |
| K126P | 0.252 | 0.147 |
| K126G | 0.426 | 0.372 |
| K126R | -0.769 | -0.286 |
| K126L | -0.515 | -0.357 |
| K126F | -0.00916 | 0.517 |
| K126Y | -0.263 | 0.0548 |
| K126H | 0.0646 | 0.114 |
| K126S | -0.46 | -0.133 |
